Assays:
H12 (Influenza A virus) [1] = test: FACS, HA on mammalian cells; 2nd only 9.7
H11 (Influenza A virus) [2] = test: FACS, HA on mammalian cells; 2nd only 8.1
[3] = molecular target: H1-CAL (Influenza A virus); test: FACS, HA on mammalian cells; 2nd only 7.4
H14 (Influenza A virus) [4] = test: FACS, HA on mammalian cells; 2nd only 12
H15 (Influenza A virus) [5] = test: FACS, HA on mammalian cells; 2nd only 12
H13 (Influenza A virus) [6] = test: FACS, HA on mammalian cells; 2nd only 12
H18 (Influenza A virus) [7] = test: FACS, HA on mammalian cells; 2nd only 5.5
H14 (Influenza A virus) [8] = test: flow cytometry, HA on mammalian cells; mock cells 0.96 [cont'd]
H16 (Influenza A virus) [9] = test: as above
H18 (Influenza A virus) [10] = test: as above
H15 (Influenza A virus) [11] = test: as above
H17 (Influenza A virus) [12] = test: as above
[13] = molecular target: H1-SC (Influenza A virus); test: FACS, HA on mammalian cells; 2nd only 7.5
[14] = molecular target: H7 hemagglutinin (influenza A virus); test: BLI, HA-7
[15] = molecular target: H5 hemagglutinin (influenza A virus); test: BLI, HA-5; printed as kdis
H10 (Influenza A virus) [16] = test: FACS, HA on mammalian cells; 2nd only 8.7
[17] = molecular target: HA from an H1N1 Swine Eurasian avian-like (EA) strain, A/Swine/Jiangsu/J004/2018 (influenza A virus (H1N1, A/Swine/Jiangsu/J004/2018)); test: flow cytometry, HA on mammalian cells; mock 4.41
H11 (Influenza A virus) [18] = test: flow cytometry, HA on mammalian cells; mock cells 0.96
H12 (Influenza A virus) [19] = test: as above
H10 (Influenza A virus) [20] = test: as above
H4 (Influenza A virus) [21] = test: as above
H8 (Influenza A virus) [22] = test: as above
H13 (Influenza A virus) [23] = test: as above
[24] = molecular target: HA from an H1N1 Swine Eurasian avian-like (EA) strain, A/Swine/Jiangsu/J004/2018 (influenza A virus (H1N1, A/Swine/Jiangsu/J004/2018)); test: flow cytometry, HA on mammalian cells; mock 7.62 [Cont'd]
H4 (Influenza A virus) [25] = test: FACS, HA on mammalian cells; 2nd only 11
H16 (Influenza A virus) [26] = test: FACS, HA on mammalian cells; 2nd only 6.9
H17 (Influenza A virus) [27] = test: FACS, HA on mammalian cells; 2nd only 4.1
[28] = molecular target: H7 hemagglutinin (influenza A virus); test: BLI, HA-7; printed as kdis
[29] = molecular target: H5 hemagglutinin (influenza A virus); test: BLI, HA-5
[30] = molecular target: HA from an H1N1 Swine Eurasian avian-like (EA) strain, A/Swine/Jiangsu/J004/2018 (influenza A virus (H1N1, A/Swine/Jiangsu/J004/2018)); test: flow cytometry, HA on mammalian cells; mock 3.31 [Cont'd]
[31] = molecular target: HA from an H1N1 Swine Eurasian avian-like (EA) strain, A/Swine/Jiangsu/J004/2018 (influenza A virus (H1N1, A/Swine/Jiangsu/J004/2018)); test: flow cytometry, HA on mammalian cells; mock 4.30
H8 (Influenza A virus) [32] = test: FACS, HA on mammalian cells; 2nd only 7.9
[33] = molecular target: H7 hemagglutinin (influenza A virus); test: BLI, HA-7 [Cont'd]
[34] = molecular target: H5 hemagglutinin (influenza A virus); test: BLI, HA-5 [Cont'd]
[35] = molecular target: H7 hemagglutinin (influenza A virus); test: BLI, HA-7; given as kdis
[36] = molecular target: H5 hemagglutinin (influenza A virus); test: BLI, HA-5; given as kdis
H14 (Influenza A virus) [37] = test: flow cytometry, HA on mammalian cells; mock cells 1.12 [cont'd]
H16 (Influenza A virus) [38] = test: as above
H18 (Influenza A virus) [39] = test: as above
H15 (Influenza A virus) [40] = test: as above
H17 (Influenza A virus) [41] = test: as above
H11 (Influenza A virus) [42] = test: flow cytometry, HA on mammalian cells; mock cells 1.12
H12 (Influenza A virus) [43] = test: as above
H10 (Influenza A virus) [44] = test: as above
H4 (Influenza A virus) [45] = test: as above
H8 (Influenza A virus) [46] = test: as above
H13 (Influenza A virus) [47] = test: as above

B1: FHF11 (antibody, V domains shown)
VH: QVQLQQSGPGLVKPSQTLSVTCGISGDSVSSHSAAWNWIRQSPSRGLEWLGRTYYRSKWYNDYAVSVKSRITINPDTSKNQFSLQLISVTPEDTAVYYCARVGAMTFGLLTGGMDVWGQGTTVTVSS
VL: EIVLTQSPGTQSLSPGERATLSCRASQSLSRSYLAWYQQRPGKPPRLLIYGASSRATGIPDRFSGSGSGTDFSLTISSLEPEDSAMYFCQYYGDSPLFSFGPGTKVDIK
H12 (Influenza A virus) [1]
  % cells binding to HA: 86%
H11 (Influenza A virus) [2]
  % cells binding to HA: 62%
[3]
  % cells binding to HA: 88%
H14 (Influenza A virus) [4]
  % cells binding to HA: 79%
H15 (Influenza A virus) [5]
  % cells binding to HA: 76%
H13 (Influenza A virus) [6]
  % cells binding to HA: 79%
H18 (Influenza A virus) [7]
  % cells binding to HA: 80%
H14 (Influenza A virus) [8]
  percent of cells in the gate: 75.2
H16 (Influenza A virus) [9]
  percent of cells in the gate: 23.2
H18 (Influenza A virus) [10]
  percent of cells in the gate: 94.3
H15 (Influenza A virus) [11]
  percent of cells in the gate: 75.6
H17 (Influenza A virus) [12]
  percent of cells in the gate: 98.2
[13]
  % cells binding to HA: 83%
[14]
  Kd: 2.03 nM
  kon: 24400 M⁻¹ s⁻¹
[15]
  koff: < 1e-07 s⁻¹
H10 (Influenza A virus) [16]
  % cells binding to HA: 82%
[17]
  Alexa 647-A+ (percent of cells) at 10 µg/ml: 90.7
H11 (Influenza A virus) [18]
  percent of cells in the gate: 42.7
H12 (Influenza A virus) [19]
  percent of cells in the gate: 79.1
H10 (Influenza A virus) [20]
  percent of cells in the gate: 89.7
H4 (Influenza A virus) [21]
  percent of cells in the gate: 40.6
H8 (Influenza A virus) [22]
  percent of cells in the gate: 89.2
H13 (Influenza A virus) [23]
  percent of cells in the gate: 75.8
[24]
  Alexa 647-A+ (percent of cells) at 0.4 µg/ml: 84.5
H4 (Influenza A virus) [25]
  % cells binding to HA: 54%
H16 (Influenza A virus) [26]
  % cells binding to HA: 20%
H17 (Influenza A virus) [27]
  % cells binding to HA: 82%
[28]
  koff: 4.95e-05 s⁻¹
[29]
  Kd: < 0.001 nM
  kon: 19900 M⁻¹ s⁻¹
[30]
  Alexa 647-A+ (percent of cells) at 2 µg/ml: 89.2
[31]
  Alexa 647-A+ (percent of cells) at 50 µg/ml: 90.7
H8 (Influenza A virus) [32]
  % cells binding to HA: 80%

B2: FHF11v3 (antibody, V domains shown)
VH: QVQLQQSGPGLVKPSQTLSVTCGISGDSVSSYSAAWNWIRQSPSRGLEWLGRTYYRSKWYNDYAVSVKSRITINPDTSKNQFSLQLISVTPEDTAVYYCARVGAMTFGLLTGGMDVWGQGTTVTVSS
VL: EIVLTQSPGTQSLSPGERATLSCRASQSLSRSYLAWYQQRPGKPPRLLIYGASSRATGIPDRFSGSGSGTDFSLTISSLEPEDSAMYFCQYYGDSPLFSFGPGTKVDIK
H12 (Influenza A virus) [1]
  % cells binding to HA: 85%
H11 (Influenza A virus) [2]
  % cells binding to HA: 59%
[3]
  % cells binding to HA: 84%
H14 (Influenza A virus) [4]
  % cells binding to HA: 70%
H15 (Influenza A virus) [5]
  % cells binding to HA: 66%
H13 (Influenza A virus) [6]
  % cells binding to HA: 79%
H18 (Influenza A virus) [7]
  % cells binding to HA: 79%
[13]
  % cells binding to HA: 82%
[14]
  Kd: 5.11 nM
  kon: 23000 M⁻¹ s⁻¹
[15]
  koff: < 1e-07 s⁻¹
H10 (Influenza A virus) [16]
  % cells binding to HA: 77%
H4 (Influenza A virus) [25]
  % cells binding to HA: 48%
H16 (Influenza A virus) [26]
  % cells binding to HA: 22%
H17 (Influenza A virus) [27]
  % cells binding to HA: 82%
[28]
  koff: 0.000118 s⁻¹
[29]
  Kd: < 0.001 nM
  kon: 16400 M⁻¹ s⁻¹
H8 (Influenza A virus) [32]
  % cells binding to HA: 78%

B3: FHF11v6 (antibody, V domains shown)
VH: QVQLQQSGPGLVKPSQTLSVTCGISGDSVSSHSAAWNWIRQSPSRGLEWLGRTYYRSGWYNDYAVSVKSRITINPDTSKNQFSLQLISVTPEDTAVYYCARVGAMTFGLLTGGMDVWGQGTTVTVSS
VL: EIVLTQSPGTQSLSPGERATLSCRASQSLSRSYLAWYQQRPGKPPRLLIYGASSRATGIPDRFSGSGSGTDFSLTISSLEPEDSAMYFCQYYGDSPLFSFGPGTKVDIK
H12 (Influenza A virus) [1]
  % cells binding to HA: 87%
[33]
  Kd: 10.4 nM
  kon: 16400 M⁻¹ s⁻¹
H11 (Influenza A virus) [2]
  % cells binding to HA: 59%
[3]
  % cells binding to HA: 85%
H14 (Influenza A virus) [4]
  % cells binding to HA: 70%
H15 (Influenza A virus) [5]
  % cells binding to HA: 75%
H13 (Influenza A virus) [6]
  % cells binding to HA: 69%
H18 (Influenza A virus) [7]
  % cells binding to HA: 79%
[34]
  Kd: < 0.001 nM
  kon: 13600 M⁻¹ s⁻¹
[13]
  % cells binding to HA: 82%
[35]
  koff: 0.000169 s⁻¹
H10 (Influenza A virus) [16]
  % cells binding to HA: 82%
H4 (Influenza A virus) [25]
  % cells binding to HA: 49%
H16 (Influenza A virus) [26]
  % cells binding to HA: 11%
H17 (Influenza A virus) [27]
  % cells binding to HA: 82%
[36]
  koff: < 1e-07 s⁻¹
H8 (Influenza A virus) [32]
  % cells binding to HA: 77%

B4: FHF11v9 (antibody, V domains shown)
VH: QVQLQQSGPGLVKPSQTLSVTCGISGDSVSSYSAAWNWIRQSPSRGLEWLGRTYYRSGWYNDYAVSVKSRITINPDTSKNQFSLQLISVTPEDTAVYYCARVGAMTFGLLTGGMDVWGQGTTVTVSS
VL: EIVLTQSPGTQSLSPGERATLSCRASQSLSRSYLAWYQQRPGKPPRLLIYGASSRATGIPDRFSGSGSGTDFSLTISSLEPEDSAMYFCQYYGDSPLFSFGPGTKVDIK
H12 (Influenza A virus) [1]
  % cells binding to HA: 86%
[33]
  Kd: 9.76 nM
  kon: 19800 M⁻¹ s⁻¹
H11 (Influenza A virus) [2]
  % cells binding to HA: 59%
[3]
  % cells binding to HA: 85%
H14 (Influenza A virus) [4]
  % cells binding to HA: 70%
H15 (Influenza A virus) [5]
  % cells binding to HA: 63%
H13 (Influenza A virus) [6]
  % cells binding to HA: 75%
H18 (Influenza A virus) [7]
  % cells binding to HA: 78%
[34]
  Kd: < 0.001 nM
  kon: 16200 M⁻¹ s⁻¹
[13]
  % cells binding to HA: 80%
[35]
  koff: 0.000193 s⁻¹
H10 (Influenza A virus) [16]
  % cells binding to HA: 79%
H4 (Influenza A virus) [25]
  % cells binding to HA: 47%
H16 (Influenza A virus) [26]
  % cells binding to HA: 13%
H17 (Influenza A virus) [27]
  % cells binding to HA: 82%
[36]
  koff: < 1e-07 s⁻¹
H8 (Influenza A virus) [32]
  % cells binding to HA: 78%

B5: FHF12 (antibody, V domains shown)
VH: QVQLQQSGPGLVKPSQTLSVTCAISGDSVSSHSAAWNWIRQSPSRGLEWLGRTYYRSKWYNDYAVSVKSRITINPDTSKNQFSLQLVSVTPEDTAVYYCARVGAATFGILTGGMDVWGQGTTVTVSS
VL: EIVLTQSPGTQSLSPGDRATLSCRASQSLSRSYLAWYQQRPGKPPRLLIYGASSRATGIPDRFSGSGSGTDFSLTISSLEPEDSAMYFCQYYGDSPLFSFGPGTKVDIK
[17]
  Alexa 647-A+ (percent of cells) at 10 µg/ml: 90.6
[24]
  Alexa 647-A+ (percent of cells) at 0.4 µg/ml: 85.1
H14 (Influenza A virus) [37]
  percent of cells in the gate: 80.4
H16 (Influenza A virus) [38]
  percent of cells in the gate: 25.7
H18 (Influenza A virus) [39]
  percent of cells in the gate: 94.8
H15 (Influenza A virus) [40]
  percent of cells in the gate: 77.2
H17 (Influenza A virus) [41]
  percent of cells in the gate: 98
H11 (Influenza A virus) [42]
  percent of cells in the gate: 37.8
H12 (Influenza A virus) [43]
  percent of cells in the gate: 75.3
H10 (Influenza A virus) [44]
  percent of cells in the gate: 88.5
H4 (Influenza A virus) [45]
  percent of cells in the gate: 72.2
H8 (Influenza A virus) [46]
  percent of cells in the gate: 89.6
H13 (Influenza A virus) [47]
  percent of cells in the gate: 79.2
[30]
  Alexa 647-A+ (percent of cells) at 2 µg/ml: 90.5
